Substrate in data set [1]: CCCC[C@@H](C(=O)Nc1ccc2c(C)c(CC(=O)O)c(=O)oc2c1)n1cc([C@@](C)(NCc2ccc(OC)cc2)C(C)C)nn1
Put plainly: (§1) Binding affinity to Trypanosoma cruzi Cruzain assessed as Kcat/Km.

Substrate in data set [2]: CCCC[C@@H](C(=O)Nc1ccc2c(C)c(CC(=O)O)c(=O)oc2c1)n1cc([C@@](C)(NCc2ccc3ncccc3c2)C(C)C)nn1
Described as §1.

Substrate in data set [3]: CCCC[C@@H](C(=O)Nc1ccc2c(C)c(CC(=O)O)c(=O)oc2c1)n1cc([C@@](C)(NCc2ccccc2)C(C)C)nn1
The description is as §1.

Substrate in data set [4]: CCCC[C@@H](C(=O)Nc1ccc2c(C)c(CC(=O)O)c(=O)oc2c1)n1cc([C@@](C)(NCc2ccc(F)cc2)C(C)C)nn1
The description is as §1.

Substrate in data set [5]: CCCC[C@@H](C(=O)Nc1ccc2c(C)c(CC(=O)O)c(=O)oc2c1)n1cc([C@@](C)(NCc2ccc3ncsc3c2)C(C)C)nn1
Described as §1.

B1: Cruzipain (Trypanosoma cruzi), P25779 (protein)
chain: MSGWARALLLAAVLVVMACLVPAATASLHAEETLTSQFAEFKQKHGRVYESAAEEAFRLSVFRENLFLARLHAAANPHATFGVTPFSDLTREEFRSRYHNGAAHFAAAQERARVPVKVEVVGAPAAVDWRARGAVTAVKDQGQCGSCWAFSAIGNVECQWFLAGHPLTNLSEQMLVSCDKTDSGCSGGLMNNAFEWIVQENNGAVYTEDSYPYASGEGISPPCTTSGHTVGATITGHVELPQDEAQIAAWLAVNGPVAVAVDASSWMTYTGGVMTSCVSEQLDHGVLLVGYNDSAAVPYWIIKNSWTTQWGEEGYIRIAKGSNQCLVKEEASSAVVGGPGPTPEPTTTTTTSAPGPSPSYFVQMSCTDAACIVGCENVTLPTGQCLLTTSGVSAIVTCGAETLTEEVFLTSTHCSGPSVRSSVPLNKCNRLLRGSVEFFCGSSSSGRLADVDRQRRHQPYHSRHRRL
As to B1, the kcat/Km came to 6.5 in data set [1]; 19 in data set [2]; 3.5 in data set [3]; 4 in data set [4]; 19 in data set [5].
